Among the data in publication PMC12900691 (2025) are Kd values, retold here.

The target in experiment [1] is CHD4 ABM (Homo sapiens, UniProt Q14839). Kind of experiment: ITC.
Experiment [2] concerns the target T1, histone H3K9me3 peptide H3K9me3 peptide (Homo sapiens, UniProt P68431, K9me3).
T1 chain: ARTKQTARKSTGGKA
In words: ITC.

Sequence of CHD4 ABM (Q14839 100-140): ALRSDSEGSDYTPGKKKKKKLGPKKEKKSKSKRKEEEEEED

B1: ATRX ADD (protein)
chain: NLKKRGEDGLHGIVSCTACGQQVNHFQKDSIYRHPSLQVLICKNCFKYYMSDDISRDSDGMDEQCRWCAEGGNLICCDFCHNAFCKKCILRNLGRKELSTIMDENNQWYCYICHPEPLLDLVTACNSVFENLEQLLQQNKKKIK
As to B1, the figures for the equilibrium dissociation constant (Kd) in experiment [1] and in experiment [2] were roughly 46 µM and roughly 4 µM, respectively.
